Residue numbers refer to the chain shown, from its start. Bridge positions count the residues as written; N and C are the ends. Square brackets hold non-standard residues; d marks the D form. Ends that are not written are not given here. S5 = C=CCCC[C@](C)(N)C(=O)O
What was measured:
Bfl-1 [1] = target: T1, Bfl-1 (Homo sapiens, UniProt Q16548); assay: Bfl-1:NOXA conjugation assay (disulfide bond formation); format: binding; settings: compared with BCL-XL and MCL-1; non-reducing SDS-PAGE
T1 sequence (Q16548 1-175): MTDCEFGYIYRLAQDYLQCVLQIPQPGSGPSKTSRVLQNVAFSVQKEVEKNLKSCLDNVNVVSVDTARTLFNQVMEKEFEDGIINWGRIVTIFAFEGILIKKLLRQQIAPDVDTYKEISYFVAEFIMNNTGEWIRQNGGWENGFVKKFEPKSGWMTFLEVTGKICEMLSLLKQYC
Protocol: Next, the impact of the C25 in NOXA was investigated. Bfl-1 and NOXA have cysteine residues within 3.5 Å of the Bfl-1 BH3 binding pocket according to modelling. […] To examine the impact of C25 in NOXA on target interaction, we examined the binding of WT NOXA SAHB and NOXA C25S SAHB to Bfl-1 and to a variety of Bfl-1 cysteine mutants. In vitro conjugation assays were performed in order to verify the formation of the disulfide bond. Global reduction of the protein and the NOXA peptides, followed by the introduction of an oxidant such as GSSG led to production of a disulfide bond, shown as a 3 kDa shift on non-reducing SDS-PAGE (FIG. 4A). […] (FIG. 4A).
Bfl-1:NOXA conjugation assay: The conjugation assay was developed to test for disulfide bond formation in a non-reducing environment. 3:1 FITC-stapled peptide:protein molar ratio was combined in the presence of DTT, then diluted and incubated with 1.2 molar excess GSSG. Samples were then run on non-reducing SDS-PAGE, scanned for fluorescence, then stained with Coomassie.

Bfl-1 [2] = target: T1, Bfl-1; assay: Competitive binding assay after pre-forming the Bfl-1:NOXA disulfide bond; settings: Bfl-1:NOXA disulfide bond pre-formed
Protocol: The functional impact of the Bfl-1:NOXA disulfide bond formation was evaluated using competitive binding assays and liposomal release assays.

BFL-1ΔC [3] = target: T2, BFL-1ΔC (Homo sapiens, UniProt Q16548); assay: In vitro covalent conjugation assay; format: binding; settings: DTT (10 mM) reduction then GSSG oxidation (12 mM); Coomassie, FITC scan
T2 construct: cDNA encoding BFL-1ΔC (aa 1-153) was cloned into the pET19b expression vector; made in house; host or cells: Escherichia coli BL21(DE3) LOBSTR
T2 sequence (Q16548 1-153): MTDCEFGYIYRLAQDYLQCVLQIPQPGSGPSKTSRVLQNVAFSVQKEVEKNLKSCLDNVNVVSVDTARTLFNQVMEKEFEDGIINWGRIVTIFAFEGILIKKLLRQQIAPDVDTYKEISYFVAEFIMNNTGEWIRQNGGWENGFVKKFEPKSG
Protocol: (§1) In Vitro Covalent Conjugation Assay: BFL-1ΔC constructs (40 μM) were combined with NOXA SAHBA or NOXA SAHBA C25S (120 μM) and 10 mM DTT in 50 mM Tris pH 8.0, 100 mM NaCl (final volume, 5 μL), and then incubated in the dark for 1 h at room temperature (RT). After this incubation in a reducing environment, the mixture was diluted 5-fold into 50 mM Tris pH 8.0, 100 mM NaCl, 12 mM GSSG and incubated in the dark for an additional 30 min at RT. The samples were then boiled in 4× loading buffer lacking DTT and electrophoresed on 12% Bis-Tris gel. The gel was rinsed with water, subjected to FITC scan (Typhoon FLA 9500, GE Healthcare) and then Coomassie staining.
(§2) For warhead-bearing SAHBs, His-BFL-1ΔC C4S/C19S protein was pretreated with 10 mM DTT in 50 mM Tris pH 8.0, 100 mM NaCl for 30 min at RT (final volume, 9.5 μL), and then combined with a 10:1 molar ratio of NOXA SAHBA or BIM SAHBA peptides bearing warheads 1-8 (final volume, 10 μL) for an additional 2 h incubation at RT. Processing for gel electrophoresis and Coomassie staining was performed as above.

BFL-1ΔC [4] = target: T3, BFL-1ΔC (Homo sapiens, UniProt Q16548, C19S/C4S); assay: In vitro covalent conjugation assay; format: binding; settings: only C55 present; oxidizing conditions
T3 construct: cDNA encoding BFL-1ΔC (aa 1-153) was cloned into the pET19b expression vector; made in house; host or cells: Escherichia coli BL21(DE3) LOBSTR
T3 sequence (Q16548 1-153 C4S/C19S): T2 sequence (Q16548 1-153) with C4S, C19S
Protocol: as §1, §2

BFL-1ΔC [5] = target: T4, BFL-1ΔC (Homo sapiens, UniProt Q16548, C19S/C4S/C55S); assay: In vitro covalent conjugation assay; format: binding; settings: lacks C55; oxidizing conditions
T4 construct: cDNA encoding BFL-1ΔC (aa 1-153) was cloned into the pET19b expression vector; made in house; host or cells: Escherichia coli BL21(DE3) LOBSTR
T4 sequence (Q16548 1-153 C4S/C19S/C55S): T2 sequence (Q16548 1-153) with C4S, C19S, C55S
Protocol: as §1, §2

GST-MCL-1ΔNΔC = target: T5, GST-MCL-1ΔNΔC (Homo sapiens, UniProt Q07820); assay: Streptavidin pull-down from anti-apoptotic protein mixture; format: binding; settings: 1:1:1:1 mixture, 1 μM each, biotinylated SAHBs
T5 construct: MCL-1ΔNΔC (aa 170-327) and BCL-XLΔC (aa 1-212) constructs were cloned into pGEX-4T-1; made in house; host or cells: Escherichia coli BL21(DE3)
T5 sequence (Q07820 170-327, stated change not applied): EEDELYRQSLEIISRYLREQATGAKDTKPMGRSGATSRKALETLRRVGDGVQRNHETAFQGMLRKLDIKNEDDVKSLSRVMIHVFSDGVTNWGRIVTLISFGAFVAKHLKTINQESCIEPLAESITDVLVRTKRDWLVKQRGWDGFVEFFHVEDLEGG
From the text: We next explored how conversion of NOXA and BIM SAHBs to BFL-1 C55-reactive agents influenced the balance between noncovalent and covalent SAHB interactions in the context of an anti-apoptotic protein mixture. First, we generated recombinant MCL-1ΔNΔC, BCL-XLΔC and BFL-1ΔC proteins with differential N-terminal tags (GST, tagless, and His, respectively) so that each could be readily identified upon gel electrophoresis and silver stain (FIG. 13A-B).
Streptavidin Pull-down: Recombinant His-BFL-1ΔC, BCL-XLΔC (tagless) and GST-MCL-1ΔNΔC (1 μM each) were combined and reduced with 3 mM DTT in PBS for 30 min at RT, and then incubated with 1 μM biotinylated SAHBA, SAHBA-3 or vehicle for 4 h at RT. The mixtures were then combined with PBS-washed high-capacity SA agarose (Thermo Fisher Pierce) and incubated with rotation for 2 h at RT. The beads were centrifuged at 3000 rpm, washed twice with NP-40 lysis buffer (1% NP40, 50 mM Tris pH 8.0, 100 mM NaCl, 2.5 mM MgCl2), once with PBS, and then bound protein eluted by boiling in 10% SDS containing 10 mg/mL biotin. Inputs (10%) and eluates were electrophoresed on a 12% Bis-Tris gel and then subjected to silver stain and imaging.

## NOXA SAHBA: stapled NOXA BH3 (aa 19-43) peptide, i, i+4 all-hydrocarbon staple substituting R31 and K35; SEQ ID NO:124 (AELEVECATQLR[S5]FGD[S5]LNFRQKLL; staple 13-17; not fully specified)
Bfl-1 [1]
  covalent (disulfide) bond formation: only Bfl-1 forms a covalent bond
Bfl-1 [2]
  availability of the Bfl-1 binding pocket to another FITC BH3 domain: significantly decreased the availability of the Bfl-1 binding pocket
BFL-1ΔC [3]
  molecular weight shift of wild-type BFL-1ΔC (disulfide bond): shift in the molecular weight
BFL-1ΔC [4]
  disulfide adduct with BFL-1ΔC C4S/C19S: molecular weight shift (Coomassie stain) and FITC-labeling
BFL-1ΔC [5]
  disulfide adduct with BFL-1ΔC C4S/C19S/C55S: no adduct
GST-MCL-1ΔNΔC
  MCL-1ΔNΔC capture in SA pull-down: prominent non-covalent capture of MCL-1ΔNΔC

— patent US12570698B2, “Stabilized peptides for covalent binding to target protein” (Dana-Farber Cancer Institute, Inc., priority 2015, dated 2026)
